The record followed here is publication PMC5040961.

In this test the target is T1, FLAG-tagged Lgl1 (Lethal giant larvae 1), Q80Y17.
T1 chain: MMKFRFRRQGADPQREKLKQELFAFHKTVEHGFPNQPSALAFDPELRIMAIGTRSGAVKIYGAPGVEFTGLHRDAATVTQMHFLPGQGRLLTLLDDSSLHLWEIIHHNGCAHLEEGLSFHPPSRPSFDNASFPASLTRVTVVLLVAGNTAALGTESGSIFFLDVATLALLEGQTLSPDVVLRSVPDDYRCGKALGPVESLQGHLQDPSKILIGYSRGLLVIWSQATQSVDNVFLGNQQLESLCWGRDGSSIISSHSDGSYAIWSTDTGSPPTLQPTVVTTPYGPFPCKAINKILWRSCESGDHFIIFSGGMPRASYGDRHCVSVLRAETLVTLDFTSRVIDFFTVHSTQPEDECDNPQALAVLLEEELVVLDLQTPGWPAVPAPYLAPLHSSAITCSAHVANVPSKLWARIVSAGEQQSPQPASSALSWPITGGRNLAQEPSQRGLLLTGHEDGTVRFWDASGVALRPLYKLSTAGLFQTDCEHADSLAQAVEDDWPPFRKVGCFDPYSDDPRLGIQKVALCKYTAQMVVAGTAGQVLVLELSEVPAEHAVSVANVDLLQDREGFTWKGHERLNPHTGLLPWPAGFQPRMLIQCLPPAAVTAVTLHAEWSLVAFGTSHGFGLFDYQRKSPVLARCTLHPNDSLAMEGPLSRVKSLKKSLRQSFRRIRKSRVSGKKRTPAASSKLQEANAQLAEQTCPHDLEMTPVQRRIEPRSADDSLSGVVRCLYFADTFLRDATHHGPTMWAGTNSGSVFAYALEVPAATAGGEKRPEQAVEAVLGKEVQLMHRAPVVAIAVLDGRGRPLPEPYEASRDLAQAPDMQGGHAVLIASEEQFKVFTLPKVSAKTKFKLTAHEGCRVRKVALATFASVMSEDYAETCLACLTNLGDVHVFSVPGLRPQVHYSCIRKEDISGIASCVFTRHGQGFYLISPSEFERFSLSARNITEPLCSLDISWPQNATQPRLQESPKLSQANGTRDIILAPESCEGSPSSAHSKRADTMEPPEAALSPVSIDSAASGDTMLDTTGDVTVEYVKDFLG
Briefly: co-immunoprecipitation (FLAG IP, western blot with HA and FLAG antibodies, quantified). To be noted: chain shown with the change; HEK293T cell lysates; n = 3; parent: est. 1.0; read off a plot. In general terms: In western blotting, separated proteins are transferred to a membrane and probed.

B1: HA-PKCζ-wt, Q05513 K225R; K284R; K378R (protein)
chain: MPSRTGPKMEGSGGRVRLKAHYGGDIFITSVDAATTFEELCEEVRDMCRLHQQHPLTLKWVDSEGDPCTVSSQMELEEAFRLARQCRDEGLIIHVFPSTPEQPGLPCPGEDKSIYRRGARRWRKLYRANGHLFQAKRFNRRAYCGQCSERIWGLARQGYRCINCKLLVHKRCHGLVPLTCRKHMDSVMPSQEPPVDDKNEDADLPSEETDGIAYISSSRKHDSIRDDSEDLKPVIDGMDGIKISQGLGLQDFDLIRVIGRGSYAKVLLVRLKKNDQIYAMKVVRKELVHDDEDIDWVQTEKHVFEQASSNPFLVGLHSCFQTTSRLFLVIEYVNGGDLMFHMQRQRKLPEEHARFYAAEICIALNFLHERGIIYRDLRLDNVLLDADGHIKLTDYGMCKEGLGPGDTTSTFCGTPNYIAPEILRGEEYGFSVDWWALGVLMFEMMAGRSPFDIITDNPDMNTEDYLFQVILEKPIRIPRFLSVKASHVLKGFLNKDPKERLGCRPQTGFSDIKSHAFFRSIDWDLLEKKQALPPFQPQITDDYGLDNFDTQFTSEPVQLTPDDEDAIKRIDQSEFEGFEYINPLLLSTEESV
As to B1, the ratio to parent turned out to be 2.4.
